Target: recombinant JNK1α1 (UniProt P45983-2 1-384)
Assay: cell-based or functional assay

Chain of recombinant JNK1α1 (P45983 other isoform, or with tags, fused parts or gaps limits assumed): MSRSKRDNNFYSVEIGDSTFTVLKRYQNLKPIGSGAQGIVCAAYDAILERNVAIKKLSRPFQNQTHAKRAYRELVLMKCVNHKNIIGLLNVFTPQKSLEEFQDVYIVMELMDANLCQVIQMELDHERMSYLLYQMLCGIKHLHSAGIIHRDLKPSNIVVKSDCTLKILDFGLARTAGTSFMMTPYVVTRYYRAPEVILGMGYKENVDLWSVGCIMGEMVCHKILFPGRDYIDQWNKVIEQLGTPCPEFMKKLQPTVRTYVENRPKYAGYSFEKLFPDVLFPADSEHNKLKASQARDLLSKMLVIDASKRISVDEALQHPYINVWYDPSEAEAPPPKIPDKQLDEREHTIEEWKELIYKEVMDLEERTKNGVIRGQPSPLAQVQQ

RPKRPTTLNLFPQVPRSQDT [L-JBD20 peptide (20 amino acid minimal JNK-inhibitory sequence of JIP-IB1)]
~1000 nM: IC50, phosphorylation of the JNK target ATF2 | IC50, phosphorylation of the JNK target IRS-1 | IC50, phosphorylation of the JNK target MADD | IC50, phosphorylation of the JNK target bcl-xl
